# In article PMC6457538:
# Target: HoLaMa DNA polymerase (Klenow sub-fragment lacking the 3'-5' exonuclease domain) (UniProt P00582)
# Assay: intrinsic tryptophan fluorescence quenching titration
# Settings: 500 nM enzyme; n = 1.24 ± 0.03 DNA per enzyme; no dNTP; Kd titration: 50 mM sodium phosphate pH 8.0, 50 mM NaCl, temperature not stated in the material; stopped-flow: 50 mM Tris-HCl pH 8.0, 0.5 mM EDTA, 10 mM MgCl2 …
# Chain of UniProt P00582 (P00582 whole entry, the tested form may be a part): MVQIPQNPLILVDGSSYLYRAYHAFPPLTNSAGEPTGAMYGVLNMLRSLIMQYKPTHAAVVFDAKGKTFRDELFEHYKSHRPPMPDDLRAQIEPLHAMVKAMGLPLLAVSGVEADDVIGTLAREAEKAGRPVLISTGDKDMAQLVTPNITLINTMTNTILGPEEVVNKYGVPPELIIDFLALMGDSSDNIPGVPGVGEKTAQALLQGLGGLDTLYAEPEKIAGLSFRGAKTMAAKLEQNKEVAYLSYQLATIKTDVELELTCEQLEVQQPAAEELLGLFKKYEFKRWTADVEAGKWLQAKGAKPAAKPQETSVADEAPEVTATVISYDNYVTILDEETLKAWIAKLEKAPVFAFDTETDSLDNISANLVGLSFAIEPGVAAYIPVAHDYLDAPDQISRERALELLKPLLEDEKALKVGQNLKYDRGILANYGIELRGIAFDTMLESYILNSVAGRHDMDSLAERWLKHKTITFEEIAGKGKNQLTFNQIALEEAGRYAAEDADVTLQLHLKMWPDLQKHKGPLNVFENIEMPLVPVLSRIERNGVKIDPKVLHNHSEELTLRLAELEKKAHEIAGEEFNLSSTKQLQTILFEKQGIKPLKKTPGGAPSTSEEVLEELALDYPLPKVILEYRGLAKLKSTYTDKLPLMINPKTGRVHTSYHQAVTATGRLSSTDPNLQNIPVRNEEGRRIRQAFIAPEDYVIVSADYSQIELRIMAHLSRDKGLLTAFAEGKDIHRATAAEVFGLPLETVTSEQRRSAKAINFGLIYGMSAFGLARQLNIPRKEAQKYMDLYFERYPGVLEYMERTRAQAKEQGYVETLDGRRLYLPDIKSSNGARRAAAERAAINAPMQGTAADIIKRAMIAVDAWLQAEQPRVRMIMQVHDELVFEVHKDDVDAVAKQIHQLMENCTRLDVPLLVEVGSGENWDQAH
sequence,measurement,value
AAAAAAAAAAAAAAAAAAAAAAAAAAAAAAAAGCGCGCGC / GCGCGCGCTTTTTTT [40mer polyA DNA (40mer template / 15mer primer)],Kd,35.1 nM
